Laboratory results from patent publication US20100166779A1 (GANYMED PHARMACEUTICALS, published 2010).
Each block holds one binder with its values, some of them ahead of it.

What was measured:
human CLD18A1 [1] = biological target: T1, human CLD18A1 (human, UniProt P56856 1-261); assay: flow cytometry on HEK293-CLD18A1 cells
T1 construct: on transfected HEK293 or CHO cells; also called claudin 18 splice variant 1; NP-057453

murine CLD18A1 [2] = biological target: T2, murine CLD18A1 (mouse, UniProt P56857 1-264); assay: summary of properties
T2 construct: on transiently transfected HEK293 cells; also called mouse CLD18A1; NP-062789

human CLD18A1 [3] = biological target: T1, human CLD18A1; assay: summary of properties
murine CLD18A1 [4] = biological target: T2, murine CLD18A1; assay: summary table of murine antibodies
human CLD18A1 [5] = biological target: T1, human CLD18A1; assay: summary table of murine antibodies
[6] = biological target: T3, Peptide 7 RSCVRESSGFTECRG (human); assay: SPOT peptide scan, peroxidase-conjugated antibody, luminescence; no exchange
T3 construct: linear 15mer of the SPOT peptide scan, no exchange
T3 peptide: RSCVRESSGFTECRG

[7] = biological target: T4, Peptide 6 QGLWRSCVRESSGFT (human); assay: as above
T4 construct: linear 15mer of the SPOT peptide scan, no exchange
T4 peptide: QGLWRSCVRESSGFT

[8] = biological target: T5, Peptide 1 MDQWSTQDLYNNPVT (human); assay: as above
T5 construct: linear 15mer of the SPOT peptide scan; has no cysteine, so the Cys-Ser exchange row is the same peptide
T5 peptide: MDQWSTQDLYNNPVT

[9] = biological target: T6, Peptide 7, Cys-Ser exchange (human); assay: SPOT peptide scan, peroxidase-conjugated antibody, luminescence; Cys-Ser exchange
T6 construct: also called peptide 7 containing serines instead of the two cysteines
T6 peptide: RSSVRESSGFTESRG

[10] = biological target: T7, Peptide 3 LYNNPVTAVFNYQGL (human); assay: SPOT peptide scan, peroxidase-conjugated antibody, luminescence; no exchange
T7 construct: linear 15mer of the SPOT peptide scan; has no cysteine, so the Cys-Ser exchange row is the same peptide
T7 peptide: LYNNPVTAVFNYQGL

[11] = biological target: T8, Peptide 5 VFNYQGLWRSCVRES (human); assay: as above
T8 construct: linear 15mer of the SPOT peptide scan, no exchange
T8 peptide: VFNYQGLWRSCVRES

[12] = biological target: T9, Peptide 5, Cys-Ser exchange (human); assay: SPOT peptide scan, peroxidase-conjugated antibody, luminescence; Cys-Ser exchange
T9 peptide: VFNYQGLWRSSVRES

[13] = biological target: T10, Peptide 6, Cys-Ser exchange (human); assay: as above
T10 peptide: QGLWRSSVRESSGFT

murine CLD18A1 [14] = biological target: T2, murine CLD18A1; assay: flow cytometry on transfected HEK293 cells
Experimental: Binding of the identified monoclonal antibodies to murine CLD18A2 and CLD18A1 was analyzed by flow cytometry. […] Binding was assessed by flow cytometry using a BD FACSArray.

binding result (human CLD18A1 [1]): no binding
B3: ch-125E1 (antibody, V domains shown)
VH: QVQLQQSGAELARPGASVKLSCKASGYTFTDYYINWVKQRTGQGLEWIGEIYPGSGNTYYNEKFKGKATLTADKSSSTAYMQLSSLTSEDSAVYFCARSYGAFDYWGQGTTLTVSS
VL: DIVMTQSQKFMSTSVGDRVSITCKASQNVRTAVAWYQQKPGQSPKALIYLASNRHTGVPDRFTGSGSGTDFTLTISNVQSEDLADYFCLQHWNYPLTFGGGTKLEIKR
notes: mouse/human chimeric, human gamma-1 and kappa constant regions; also called chimeric 125E1

binding result (murine CLD18A1 [4]): no binding
binding result (human CLD18A1 [5]): no binding
B4: 125E1 (antibody, IgG2a, V domains shown)
VH: QVQLQQSGAELARPGASVKLSCKASGYTFTDYYINWVKQRTGQGLEWIGEIYPGSGNTYYNEKFKGKATLTADKSSSTAYMQLSSLTSEDSAVYFCARSYGAFDYWGQGTTLTVSS
VL: DIVMTQSQKFMSTSVGDRVSITCKASQNVRTAVAWYQQKPGQSPKALIYLASNRHTGVPDRFTGSGSGTDFTLTISNVQSEDLADYFCLQHWNYPLTFGGGTKLEIK
notes: mouse monoclonal IgG2a, kappa; also called 182-D1106-279; DSM ACC2808

binding result (human CLD18A1 [1]): no binding
B5: ch-43A11 (antibody, V domains shown)
VH: QVQLQQSGAELMKPGASVKISCKATGYTFSSYWIEWVKQRPGHGLEWIGEILPGSGSTNYNEKFKGKATFTADTSSNTAYMQLSSLTSEDSAVYYCARYDYPWFAYWGQGTLVTVSA
VL: QIVLTQSPAIMSASPGEKVTITCSASSSVSYMHWFQQKPGTSPKLWIYSTSNLASGVPARFSGSGSGTSYSLTISRMEAEDAATYYCQQRSSYPPTFGGGTKLEIKR
notes: mouse/human chimeric, human gamma-1 and kappa constant regions; also called chimeric 43A11

binding result (human CLD18A1 [1]): no binding
B6: 43A11 (antibody, IgG2a, V domains shown)
VH: QVQLQQSGAELMKPGASVKISCKATGYTFSSYWIEWVKQRPGHGLEWIGEILPGSGSTNYNEKFKGKATFTADTSSNTAYMQLSSLTSEDSAVYYCARYDYPWFAYWGQGTLVTVSA
VL: QIVLTQSPAIMSASPGEKVTITCSASSSVSYMHWFQQKPGTSPKLWIYSTSNLASGVPARFSGSGSGTSYSLTISRMEAEDAATYYCQQRSSYPPTFGGGTKLEIK
notes: mouse monoclonal IgG2a, kappa; also called 182-D1106-062; DSM ACC2742

binding result (human CLD18A1 [1]): no binding
binding result (murine CLD18A1 [14]): no binding
B9: 163E12 (antibody, IgG3, V domains shown)
VH: QIQLVQSGPELKKPGETVKISCKASGYTFTNYGMNWVKQAPGKGLKWMGWINTNTGEPTYAEEFKGRFAFSLETSASTAYLQINNLKNEDTATYFCARLGFGNAMDYWGQGTSVTVSS
VL: DIVMTQSPSSLTVTAGEKVTMSCKSSQSLLNSGNQKNYLTWYQQKPGQPPKLLIYWASTRESGVPDRFTGSGSGTDFTLTISSVQAEDLAVYYCQNDYSYPLTFGAGTKLELK
notes: mouse monoclonal IgG3, kappa; also called 182-D1106-294; DSM ACC2809

Second part, the binder before the results:

B1: ch-166E2 (antibody, V domains shown)
VH: QVQLQQSGPELVKPGASVKMSCKASGYTFTDYVISWVKQRTGQGLEWIGEIYPGSGSTYYNEKFKGKATLTADKSSNTAYMQLSSLTSEDSAVYFCARGVLLRAMDYWGQGTSVTVSS
VL: DIVMSQSPSSLAVSAGEKVTMSCKSSQSLLNSRTRKNYLAWYQQKPGQSPKLLIYWASTRESGVPDRFTGSGSGTDFTLTISSVQAEDLAVYYCKQSYNLYTFGGGTKLEIKR
notes: mouse/human chimeric, human gamma-1 and kappa constant regions; also called chimeric 166E2
binding result (human CLD18A1 [1]): no binding

B2: 166E2 (antibody, IgG3, V domains shown)
VH: QVQLQQSGPELVKPGASVKMSCKASGYTFTDYVISWVKQRTGQGLEWIGEIYPGSGSTYYNEKFKGKATLTADKSSNTAYMQLSSLTSEDSAVYFCARGVLLRAMDYWGQGTSVTVSS
VL: DIVMSQSPSSLAVSAGEKVTMSCKSSQSLLNSRTRKNYLAWYQQKPGQSPKLLIYWASTRESGVPDRFTGSGSGTDFTLTISSVQAEDLAVYYCKQSYNLYTFGGGTKLEIK
notes: mouse monoclonal IgG3, kappa; also called 182-D1106-308
binding result (murine CLD18A1 [2]): no binding
binding result (human CLD18A1 [3]): no binding

B7: ch-175D10 (antibody, V domains shown)
VH: QVQLQQPGAELVRPGASVKLSCKASGYTFTSYWINWVKQRPGQGLEWIGNIYPSDSYTNYNQKFKDKATLTVDKSSSTAYMQLSSPTSEDSAVYYCTRSWRGNSFDYWGQGTTLTVSS
VL: DIVMTQSPSSLTVTAGEKVTMSCKSSQSLLNSGNQKNYLTWYQQKPGQPPKLLIYWASTRESGVPDRFTGSGSGTDFTLTISSVQAEDLAVYYCQNDYSYPFTFGSGTKLEIKR
notes: mouse/human chimeric, human gamma-1 and kappa constant regions; peroxidase-conjugated in the peptide scan; also called chimeric 175D10
binding result [6]: binds
binding result [7]: binds
binding result [8]: binds
binding result [9]: binds

B8: ch-163E12 (antibody, V domains shown)
VH: QIQLVQSGPELKKPGETVKISCKASGYTFTNYGMNWVKQAPGKGLKWMGWINTNTGEPTYAEEFKGRFAFSLETSASTAYLQINNLKNEDTATYFCARLGFGNAMDYWGQGTSVTVSS
VL: DIVMTQSPSSLTVTAGEKVTMSCKSSQSLLNSGNQKNYLTWYQQKPGQPPKLLIYWASTRESGVPDRFTGSGSGTDFTLTISSVQAEDLAVYYCQNDYSYPLTFGAGTKLELKR
notes: mouse/human chimeric, human gamma-1 and kappa constant regions; peroxidase-conjugated in the peptide scan; also called chimeric 163E12
binding result [7]: binds
binding result [10]: binds
binding result [8]: binds
binding result [11]: binds
binding result [12]: binds
binding result [13]: binds
binding result (human CLD18A1 [1]): no binding
